Drawing on the Immune Epitope Database (IEDB), this text covers Kd for 36 sequences.

Holding throughout (experiment): IEDB peptide-MHC binding, purified MHC/competitive/radioactivity; filed as Kd, often an IC50 or EC50 that approximates it; ≥ and ≤ were set here for values at or beyond the usual limits of such assays
In experiment [1] the target is HLA-A*03:01.
Experiment [2] deals with HLA-A*11:01.
The target of experiment [3] is HLA-A*31:01.
In experiment [4] the target is HLA-A*33:01.
For experiment [5], the target named is HLA-A*68:01.
[6] abbreviates: source organism: Dengue virus 3 Martinique/1243/1999.
[7] abbreviates: source organism: Vaccinia virus WR.
The mark [8] stands for this setting: source organism: Dengue virus 1 Brazil/97-11/1997.
[9] abbreviates: source organism: SARS coronavirus Tor2.
Setting [10] is: source organism: Dengue virus 2 Jamaica/1409/1983.
Setting [11] is: source organism: Dengue virus 4 Philippines/H241/1956.
Setting [12] is: source organism: Mammarenavirus brazilense.
The mark [13] stands for this setting: source organism: Dengue virus 1 Singapore/S275/1990.
The mark [14] stands for this setting: source organism: Dengue virus 1 Nauru/West Pac/1974.

By Kd is commonly meant the constant that tells how readily two partners part at equilibrium. Turning to TLLVWHTWQK, the Kd in experiment [1] (setting [6]) worked out at 45.5 nM.
As to TSKTTILSK, the dissociation constant (Kd) in experiment [2] (setting [7]) is 403 nM; in experiment [1] (setting [7]), 4520 nM; in experiment [3] (setting [7]) it was 2020 nM; in experiment [4] (setting [7]), no less than 37700 nM; in experiment [5] (setting [7]) it was 1110 nM.
For the sequence MFAVGLLFRR, the Kd in experiment [3] (setting [8]) stood at 19000 nM; in experiment [4] (setting [8]) it was 1.66 nM; in experiment [5] (setting [8]), 61.8 nM.
With TIKYSNDNRY, the Kd was 8860 nM in experiment [2] (setting [7]); no less than 20600 nM in experiment [1] (setting [7]); no less than 29900 nM in experiment [3] (setting [7]); no less than 70000 nM in experiment [4] (setting [7]); 956 nM in experiment [5] (setting [7]).
Consider YIRRNMINK, for which the Kd is 568 nM in experiment [2] (setting [7]); 10.6 nM in experiment [1] (setting [7]); 2370 nM in experiment [3] (setting [7]); no less than 21300 nM in experiment [4] (setting [7]); 168 nM in experiment [5] (setting [7]).
For KVLAARLKR, the Kd in experiment [2] (setting [7]) amounted to 158 nM; in experiment [1] (setting [7]), 633 nM; in experiment [3] (setting [7]) it was 663 nM; in experiment [4] (setting [7]) it was 18800 nM; in experiment [5] (setting [7]) it was 6.07 nM.
For AANTVIWDY, the Kd in experiment [2] (setting [9]) is 107 nM; in experiment [1] (setting [9]) it was no less than 78000 nM; in experiment [3] (setting [9]), no less than 38100 nM; in experiment [4] (setting [9]), no less than 77700 nM; in experiment [5] (setting [9]) it was 14200 nM.
On to DFIRRKYLIY, for which the Kd in experiment [2] (setting [7]) is no less than 20200 nM; in experiment [1] (setting [7]), 8650 nM; in experiment [3] (setting [7]) it was no less than 70000 nM; in experiment [4] (setting [7]) it was 10400 nM; in experiment [5] (setting [7]) it was 1100 nM.
Take LILAEYIRHR: the Kd amounted to 738 nM in experiment [2] (setting [7]); 2190 nM in experiment [1] (setting [7]); 80.4 nM in experiment [3] (setting [7]); 5390 nM in experiment [4] (setting [7]); 1730 nM in experiment [5] (setting [7]).
With NVAYNVVNK, the Kd in experiment [2] (setting [9]) came to 121 nM; in experiment [1] (setting [9]), 469 nM; in experiment [3] (setting [9]) it was 7170 nM; in experiment [4] (setting [9]), 19300 nM; in experiment [5] (setting [9]), 30.8 nM.
Consider MVLLQMEDK, for which the Kd in experiment [2] (setting [10]) amounted to 2010 nM.
Turning to VAAEMEEALR, the Kd in experiment [5] (setting [10]) is 128 nM.
Turning to WSYYCAGLK, the Kd in experiment [1] (setting [8]) turned out to be 12.2 nM.
TTTIFAGHLK: the results for the Kd in experiment [2] (setting [8]) and in experiment [5] (setting [8]) were 22.7 nM and 8.88 nM, respectively.
Turning to ALTLHWFRK, the Kd in experiment [2] (setting [11]) came out at 100 nM; in experiment [1] (setting [11]), 15 nM.
On to ETKGVERLKR, for which the Kd turned out to be 336 nM in experiment [4] (setting [6]) and 14.2 nM in experiment [5] (setting [6]).
Regarding DNQKLSYLK, the dissociation constant (Kd) in experiment [1] (setting [12]) was no less than 78000 nM; in experiment [3] (setting [12]), 2650 nM; in experiment [4] (setting [12]), 8370 nM; in experiment [5] (setting [12]), 7480 nM.
Turning to MVGANASDR, in experiment [5] (setting [13]), the Kd is 45.5 nM.
With GTILIKVEYK, the Kd in experiment [2] (setting [6]) amounted to 69.2 nM; in experiment [5] (setting [6]), 38.2 nM.
For EMGLLETTKR, in experiment [4] (setting [6]), the Kd amounted to 58.2 nM.
In the case of DGCWYGMEIR, in experiment [4] (setting [10]), the Kd was determined as 154 nM.
Consider FVVTLIPLCR, for which the dissociation constant (Kd) was determined as 11.8 nM in experiment [4] (setting [11]) and 3.1 nM in experiment [5] (setting [11]).
For KKKNPRLCTR, in experiment [3] (setting [11]), the Kd came to 1040 nM.
As for QLRSLTEILK, the Kd in experiment [1] (source organism: Homo sapiens) was determined as 55 nM.
As to GVTLFFLSGR, the Kd is no less than 70000 nM in experiment [3] (setting [14]) and 56.2 nM in experiment [4] (setting [14]).
For IAARGYISTR, the Kd in experiment [5] (setting [10]) stood at 12 nM.
Consider LMIVARHER, for which the figures for the Kd in experiment [3] (setting [11]) and in experiment [4] (setting [11]) were 5.18 nM and 116 nM, respectively.
For the sequence GQLKLNWFK, in experiment [2] (setting [10]), the dissociation constant Kd came out at 28.1 nM.
As to DTRTPKAKR, in experiment [4] (setting [13]), the Kd was found to be 93.7 nM.
As for ETTMRGAKR, the Kd in experiment [4] (setting [10]) is 117 nM; in experiment [5] (setting [10]), 35.8 nM.
On to CEMNHVNSMH, for which the Kd in experiment [5] (setting [12]) is no less than 48100 nM.
With NYKERMVTFK, the Kd in experiment [4] (setting [11]) was 1400 nM.
On to ILFEEVMRGK, for which, in experiment [1] (setting [6]), the Kd worked out at 8.96 nM.
As for TTLSRTSKK, the Kd in experiment [2] (setting [10]) came out at 158 nM; in experiment [1] (setting [10]), 14.3 nM; in experiment [5] (setting [10]), 302 nM.
As for EFWKLVDRER, the Kd in experiment [4] (source organism: Dengue virus 3 Sri Lanka/1266/2000) stood at 2.92 nM.
Turning to FLLNISYLCH, the Kd was no less than 46600 nM in experiment [2] (setting [12]), 11800 nM in experiment [1] (setting [12]), 5830 nM in experiment [3] (setting [12]) and 5.32 nM in experiment [4] (setting [12]).
